Earlier results, collected in paper PMC5331467.

Target: Tyr7 (UniProt position 7, SHHWGYGKHNG)
Assay: NMR (jointly with neutron crystallography)

## Carbonic anhydrase II (CA-II) (Homo sapiens)
  pKa: 7.1
